The target of experiment [1] is endogenous CNK (anti-CNK blot, no CNK construct transfected). As to the kind of experiment: anti-V5 immunoprecipitation, immunoblot quantification. Particulars: S2 cells; V5-KSR and Myc-MEK co-expressed; anti-CNK blot (band near 180 kDa); parent: 1.00. Background: Immunoblotting shows a protein as a band on a membrane.
In another experiment the target is Flag-CNK^2–549 (UniProt Q7KNQ9). As to the kind of experiment: GST pull-down, immunoblot quantification. Particulars: S2 cells, Flag-CNK2–549, V5-KSR, Myc-MEK, GST-HYP co-expressed, captured via GST-HYP, parent: 1.00.
Experiment [2] has as its target CNK^CRIC Q84E (Flag-CNK^2–549 assumed). As to the kind of experiment: GST pull-down, immunoblot quantification. Particulars: S2 cells, Flag-CNK2–549, V5-KSR, Myc-MEK, GST-HYP co-expressed, captured via GST-HYP, parent: 1.00.
For experiment [3], the target named is CNK^CRIC N96E (Flag-CNK^2–549 assumed). As to the kind of experiment: GST pull-down, immunoblot quantification. Particulars: S2 cells, Flag-CNK2–549, V5-KSR, Myc-MEK, GST-HYP co-expressed, captured via GST-HYP, parent: 1.00.
In experiment [4] the target is CNK^SAM R46F (Flag-CNK^2–549 assumed). As to the kind of experiment: GST pull-down, immunoblot quantification. Particulars: S2 cells, Flag-CNK2–549, V5-KSR, Myc-MEK, GST-HYP co-expressed, captured via GST-HYP, parent: 1.00.
In experiment [5] the target is CNK^SAM Y76R (Flag-CNK^2–549 assumed). As to the kind of experiment: GST pull-down, immunoblot quantification. The following applies: S2 cells, Flag-CNK2–549, V5-KSR, Myc-MEK, GST-HYP co-expressed, captured via GST-HYP, parent: 1.00.
The target in a further experiment is T1, V5-KSR R913E, Q24171.
T1 chain: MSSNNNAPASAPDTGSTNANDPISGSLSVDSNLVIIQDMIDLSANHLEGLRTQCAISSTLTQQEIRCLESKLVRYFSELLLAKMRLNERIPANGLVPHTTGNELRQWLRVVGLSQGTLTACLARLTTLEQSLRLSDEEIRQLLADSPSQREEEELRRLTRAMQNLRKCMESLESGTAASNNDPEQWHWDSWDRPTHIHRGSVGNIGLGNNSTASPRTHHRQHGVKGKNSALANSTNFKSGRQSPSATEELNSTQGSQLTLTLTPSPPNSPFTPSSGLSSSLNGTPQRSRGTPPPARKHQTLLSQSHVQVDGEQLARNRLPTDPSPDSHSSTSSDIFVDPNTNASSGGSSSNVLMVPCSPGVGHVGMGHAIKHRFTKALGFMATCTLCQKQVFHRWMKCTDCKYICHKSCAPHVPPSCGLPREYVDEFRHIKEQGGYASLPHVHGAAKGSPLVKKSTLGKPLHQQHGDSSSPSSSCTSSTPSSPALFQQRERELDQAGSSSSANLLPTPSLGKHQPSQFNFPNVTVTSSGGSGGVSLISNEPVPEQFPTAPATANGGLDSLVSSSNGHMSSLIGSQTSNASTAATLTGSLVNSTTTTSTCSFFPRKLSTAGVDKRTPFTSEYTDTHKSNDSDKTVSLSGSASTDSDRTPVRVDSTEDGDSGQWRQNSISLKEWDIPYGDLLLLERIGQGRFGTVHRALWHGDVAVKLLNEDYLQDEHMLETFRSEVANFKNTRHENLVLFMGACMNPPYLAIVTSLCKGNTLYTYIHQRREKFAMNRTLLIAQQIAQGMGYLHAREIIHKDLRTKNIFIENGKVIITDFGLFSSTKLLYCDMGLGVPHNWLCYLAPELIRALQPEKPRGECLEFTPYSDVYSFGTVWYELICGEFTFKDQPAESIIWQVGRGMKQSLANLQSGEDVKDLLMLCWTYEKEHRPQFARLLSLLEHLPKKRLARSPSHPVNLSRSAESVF
As to the kind of experiment: anti-V5 immunoprecipitation, immunoblot quantification. Particulars: chain shown with the change; S2 cells; V5-KSR and Myc-MEK co-expressed; anti-Myc (MEK) blot; parent: 1.00.

Flag-CNK^2–549, sequence (Q7KNQ9 entry or part of it): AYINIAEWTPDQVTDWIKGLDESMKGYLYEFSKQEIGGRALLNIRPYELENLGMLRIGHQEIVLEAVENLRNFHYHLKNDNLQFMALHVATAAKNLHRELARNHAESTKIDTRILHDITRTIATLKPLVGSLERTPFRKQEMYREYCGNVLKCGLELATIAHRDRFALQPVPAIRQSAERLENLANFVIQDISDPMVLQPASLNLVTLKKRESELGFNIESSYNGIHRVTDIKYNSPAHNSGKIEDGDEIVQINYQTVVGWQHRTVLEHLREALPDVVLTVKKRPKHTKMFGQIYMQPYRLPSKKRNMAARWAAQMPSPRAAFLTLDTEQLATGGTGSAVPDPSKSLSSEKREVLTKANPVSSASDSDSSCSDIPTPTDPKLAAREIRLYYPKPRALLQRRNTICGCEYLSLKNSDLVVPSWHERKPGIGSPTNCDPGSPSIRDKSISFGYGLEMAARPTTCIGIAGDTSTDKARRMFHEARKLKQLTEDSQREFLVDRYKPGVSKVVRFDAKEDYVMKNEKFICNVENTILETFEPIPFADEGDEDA

In the case of V5-KSR (from UniProt Q24171) E926R, in experiment [1], the ratio to parent was 1.12.

With V5-KSR (from UniProt Q24171) K903D, the ratio to parent in experiment [1] came out at 0.26.

With V5-KSR (from UniProt Q24171) M902D, the ratio to parent in experiment [1] is 0.13.

Consider V5-KSR (from UniProt Q24171) W896R, for which the ratio to parent in experiment [1] came out at 0.29.

In the case of V5-KSR (from UniProt Q24171) Y925D, in experiment [1], the ratio to parent amounted to 0.25.

For the molecule m5; m6 KSR:R913E; MEK:E323R, the ratio to parent with Flag-CNK^2–549 (anti-Myc (MEK) blot) and with Flag-CNK^2–549 (anti-V5 (KSR) blot) was 0.41 throughout.

Take m5; m8 KSR:R913E; CNK:Q84E: the ratio to parent in experiment [2] (anti-Myc (MEK) blot) was determined as 0.1; in experiment [2] (anti-V5 (KSR) blot) it was 0.13.

Take m6; m8 MEK:E323R; CNK:N96E: the ratio to parent is 0.22 in experiment [3] (anti-Myc (MEK) blot) and 0.27 in experiment [3] (anti-V5 (KSR) blot).

Regarding m6; m8 MEK:E323R; CNK:Q84E, the values for the ratio to parent in experiment [2] (anti-Myc (MEK) blot) and in experiment [2] (anti-V5 (KSR) blot) were 0.02 and 0.05, respectively.

For m6; m8 MEK:E323R; CNK:R46F, the ratio to parent amounted to 0.2 in experiment [4] (anti-Myc (MEK) blot) and 0.23 in experiment [4] (anti-V5 (KSR) blot).

For m6; m8 MEK:E323R; CNK:Y76R, the figures for the ratio to parent in experiment [5] (anti-Myc (MEK) blot) and in experiment [5] (anti-V5 (KSR) blot) were 0.06 and 0.09, respectively.

B1: m6; m5 MEK:E323R; KSR:R913E (protein)
chain: MSKNKLNLVLPPVNTEATVAAATVAPTPPFKTPSGTDTHSLLGKPKTSIDALTETLEGLDMGDTERKRIKMFLSQKEKIGELSDEDLEKLGELGSGNGGVVMKVRHTHTHLIMARKLIHLEVKPAIKKQILRELKVLHECNFPHIVGFYGAFYSDGEISICMEYMDGGSLDLILKRAGRIPESILGRITLAVLKGLSYLRDNHAIIHRDVKPSNILVNSSGEIKICDFGVSGQLIDSMANSFVGTRSYMSPERLQGTHYSVQSDIWSLGLSLVEMAIGMYPIPPPNTATLESIFADNAEESGQPTDEPRAMAIFELLDYIVNRPPPKLEHKIFSTEFKDFVDICLKKQPDERADLKTLLSHPWIRKAELEEVDISGWVCKTMDLPPSTPKRNTSPN
With B1, the ratio to parent with V5-KSR R913E, Q24171 was 1.01.

For the origin of these results see PMC11257983 (2024).
